Data on 23 molecules can be found in PMC9482650, “Quantitative fragmentomics allow affinity mapping of interactomes” (Nature Communications, 2022).

Common to all, as to experiment: holdup assay
Common to all, as to parameters: key: below the threshold = too weak to quantify, mostly under pKd 3.1 to 4

Assay [1] deals with ARHGEF12, Q9NZN5-2.
Assay [2] deals with T1, SNTG1, Q9NSN8.
T1 sequence (Q9NSN8 52-150, limits assumed, looked up): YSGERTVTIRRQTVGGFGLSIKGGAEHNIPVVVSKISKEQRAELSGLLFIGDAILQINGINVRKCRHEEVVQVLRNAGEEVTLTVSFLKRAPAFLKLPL

The target of assay [3] is T2, APBA3_2, O96018.
T2 sequence (O96018 480-570, limits assumed, looked up): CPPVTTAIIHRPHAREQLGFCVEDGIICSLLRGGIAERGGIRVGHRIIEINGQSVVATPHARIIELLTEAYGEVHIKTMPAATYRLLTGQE
Particulars: plain residues with an end cap or a label only (N-terminal biotin on a linker: ttds).

Assay [4] has as its target CNKSR3, Q6P9H4. Particulars: plain residues with an end cap or a label only (N-terminal biotin on a linker: ttds).
Assay [5] addresses T3, DVL1, O14640.
T3 sequence (O14640 246-333, limits assumed, looked up): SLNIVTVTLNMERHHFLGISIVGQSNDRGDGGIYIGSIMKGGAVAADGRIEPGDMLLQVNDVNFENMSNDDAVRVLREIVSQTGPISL
As to conditions: plain residues with an end cap or a label only (N-terminal biotin on a linker: ttds).

Assay [6] has as its target IL16_2, Q14005. As to conditions: plain residues with an end cap or a label only (N-terminal biotin on a linker: ttds).
Assay [7] concerns the target LMO7, Q8WWI1. As to conditions: plain residues with an end cap or a label only (N-terminal biotin on a linker: ttds).
The target of assay [8] is MAGI1_3, Q96QZ7. Particulars: plain residues with an end cap or a label only (N-terminal biotin on a linker: ttds).
The target in assay [9] is T4, NHERF1_2, O14745.
T4 sequence (O14745 149-244, limits assumed, looked up): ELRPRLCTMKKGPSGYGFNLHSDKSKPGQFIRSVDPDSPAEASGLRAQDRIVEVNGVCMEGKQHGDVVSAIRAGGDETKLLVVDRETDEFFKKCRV
Particulars: plain residues with an end cap or a label only (N-terminal biotin on a linker: ttds).

Assay [10] concerns the target NHERF2_1, Q15599. Particulars: plain residues with an end cap or a label only (N-terminal biotin on a linker: ttds).
The target of assay [11] is T5, NHERF3_2, Q5T2W1.
T5 sequence (Q5T2W1 129-225, limits assumed, looked up): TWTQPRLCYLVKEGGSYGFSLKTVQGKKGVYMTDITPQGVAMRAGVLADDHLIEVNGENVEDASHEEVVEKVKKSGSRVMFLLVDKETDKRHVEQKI
As to conditions: plain residues with an end cap or a label only (N-terminal biotin on a linker: ttds).

For assay [12], the target named is T6, PDZD2_1, O15018.
T6 sequence (O15018 80-192, limits assumed, looked up): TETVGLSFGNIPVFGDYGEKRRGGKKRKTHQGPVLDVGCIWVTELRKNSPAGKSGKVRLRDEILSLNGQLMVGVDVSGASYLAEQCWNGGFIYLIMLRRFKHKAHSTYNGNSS
Particulars: plain residues with an end cap or a label only (N-terminal biotin on a linker: ttds).

Assay [13] concerns the target T7, PDZD2_3, O15018.
T7 sequence (O15018 581-682, limits assumed, looked up): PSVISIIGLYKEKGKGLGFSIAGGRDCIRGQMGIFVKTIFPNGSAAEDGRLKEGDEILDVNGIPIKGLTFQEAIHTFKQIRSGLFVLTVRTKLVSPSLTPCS
Particulars: plain residues with an end cap or a label only (N-terminal biotin on a linker: ttds).

Assay [14] deals with T8, PDZRN3_2, Q9UPQ7.
T8 sequence (Q9UPQ7 414-513, limits assumed, looked up): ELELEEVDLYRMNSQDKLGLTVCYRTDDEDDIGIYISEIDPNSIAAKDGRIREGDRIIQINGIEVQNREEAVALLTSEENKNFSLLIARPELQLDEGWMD
Particulars: plain residues with an end cap or a label only (N-terminal biotin on a linker: ttds).

For assay [15], the target named is T9, PREX2_2, Q70Z35.
T9 sequence (Q70Z35 672-764, limits assumed, looked up): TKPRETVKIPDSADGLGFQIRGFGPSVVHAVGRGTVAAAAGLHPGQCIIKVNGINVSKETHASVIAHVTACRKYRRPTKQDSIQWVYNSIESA
Particulars: plain residues with an end cap or a label only (N-terminal biotin on a linker: ttds).

Assay [16] addresses T10, PTPN13_4, Q12923.
T10 sequence (Q12923 1783-1878, limits assumed, looked up): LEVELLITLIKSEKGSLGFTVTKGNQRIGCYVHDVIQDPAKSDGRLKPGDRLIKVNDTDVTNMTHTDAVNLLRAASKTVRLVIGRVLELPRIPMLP
Particulars: plain residues with an end cap or a label only (N-terminal biotin on a linker: ttds).

For assay [17], the target named is T11, PTPN13_5, Q12923.
T11 sequence (Q12923 1877-1975, limits assumed, looked up): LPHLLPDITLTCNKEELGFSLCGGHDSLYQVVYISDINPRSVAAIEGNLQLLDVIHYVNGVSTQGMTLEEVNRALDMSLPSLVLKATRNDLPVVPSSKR
Particulars: plain residues with an end cap or a label only (N-terminal biotin on a linker: ttds).

Assay [18] has as its target T12, PTPN4, P29074.
T12 sequence (P29074 512-599, limits assumed, looked up): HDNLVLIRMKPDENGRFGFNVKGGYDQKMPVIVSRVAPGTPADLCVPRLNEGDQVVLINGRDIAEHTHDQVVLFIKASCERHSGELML
As to conditions: plain residues with an end cap or a label only (N-terminal biotin on a linker: ttds).

The target of assay [19] is T13, SHROOM2, Q13796.
T13 sequence (Q13796 21-118, limits assumed, looked up): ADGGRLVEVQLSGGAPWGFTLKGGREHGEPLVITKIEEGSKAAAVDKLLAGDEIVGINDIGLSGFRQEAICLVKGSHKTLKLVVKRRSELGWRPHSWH
Particulars: plain residues with an end cap or a label only (N-terminal biotin on a linker: ttds).

Assay [20] concerns the target T14, SHROOM4, Q9ULL8.
T14 sequence (Q9ULL8 5-102, limits assumed, looked up): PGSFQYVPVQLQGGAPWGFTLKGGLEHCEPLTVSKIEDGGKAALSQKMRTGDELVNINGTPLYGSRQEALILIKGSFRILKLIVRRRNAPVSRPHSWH
As to conditions: plain residues with an end cap or a label only (N-terminal biotin on a linker: ttds).

Assay [21] addresses T15, USH1C_1, Q9Y6N9.
T15 sequence (Q9Y6N9 82-179, limits assumed, looked up): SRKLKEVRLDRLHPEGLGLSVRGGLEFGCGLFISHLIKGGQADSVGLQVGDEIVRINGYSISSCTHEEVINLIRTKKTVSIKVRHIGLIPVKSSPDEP
As to conditions: plain residues with an end cap or a label only (N-terminal biotin on a linker: ttds).

Where [22] appears, read: plain residues with an end cap or a label only (N-terminal biotin on a linker: ahx).
[23] abbreviates: plain residues with an end cap or a label only (N-terminal biotin on a linker: ttds).
Setting [24] is: plain residues with an end cap or a label only (N-terminal biotin on a linker: gsgsgs; C-terminal amide).
The mark [25] stands for this setting: plain residues with an end cap or a label only (N-terminal biotin on a linker: ado-ado).

Chain of ARHGEF12, Q9NZN5-2 (Q9NZN5 other isoform, or with tags, fused parts or gaps): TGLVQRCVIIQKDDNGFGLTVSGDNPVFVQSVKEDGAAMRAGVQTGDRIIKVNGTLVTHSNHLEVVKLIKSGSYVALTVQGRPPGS
Chain of NHERF2_1, Q15599 (Q15599 9-91): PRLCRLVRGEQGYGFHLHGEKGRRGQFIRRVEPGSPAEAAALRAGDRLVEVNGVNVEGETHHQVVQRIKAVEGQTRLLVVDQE
Chain of IL16_2, Q14005 (Q14005 350-450): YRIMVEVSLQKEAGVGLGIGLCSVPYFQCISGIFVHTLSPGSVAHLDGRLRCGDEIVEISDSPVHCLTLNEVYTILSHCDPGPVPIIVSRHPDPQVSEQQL
Chain of MAGI1_3, Q96QZ7 (Q96QZ7 638-725): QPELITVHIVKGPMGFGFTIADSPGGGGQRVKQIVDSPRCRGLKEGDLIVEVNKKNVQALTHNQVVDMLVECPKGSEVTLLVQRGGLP
Chain of LMO7, Q8WWI1 (Q8WWI1 1037-1138): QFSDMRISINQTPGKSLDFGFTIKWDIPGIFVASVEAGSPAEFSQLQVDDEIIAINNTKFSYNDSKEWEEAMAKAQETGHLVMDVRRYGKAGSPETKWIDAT
Chain of CNKSR3, Q6P9H4 (Q6P9H4 203-303): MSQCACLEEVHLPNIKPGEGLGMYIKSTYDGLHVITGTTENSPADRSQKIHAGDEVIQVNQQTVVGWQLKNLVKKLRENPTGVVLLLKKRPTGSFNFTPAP

B1: NHERF2, Q15599 (peptide)
chain: NRKREIFSNF
Usually pKd stands for the negative decadic logarithm of the Kd, by convention in mol/L. For B1, the negative logarithm of the Kd (pKd) result in [1] (setting [22]) and in [2] (setting [22]) was “below the threshold” in each case.

B2: SHROOM4, Q9ULL8 (peptide)
chain: ESLLLGPSNF
Take B2: the pKd result in assay [1] (setting [22]) and in [2] (setting [22]) was “below the threshold” in each case.

B3: SLC4A7, Q9Y6M7 (peptide)
chain: KKYVDAETSL
Take B3: the values for the pKd in assay [1] (setting [23]) and in assay [2] (setting [23]) were 4.29 and 3.82, respectively.

B4: OTULIN, Q96BN8 (peptide)
chain: PVRVCEETSL
For the molecule B4, the figures for the pKd in assay [1] (setting [23]) and in assay [2] (setting [23]) were 4.8 and 4.28, respectively.

B5: HPV49-L2, P36762 (peptide)
chain: RRRKRKRTYL
As for B5, the results for the negative-log Kd (pKd) in assay [1] (setting [22]) and in assay [2] (setting [22]) were 4.68 and “below the threshold”, respectively.

B6: LNX2, Q8N448 (peptide)
chain: TVICWPGSLV
For B6, the pKd entry was “below the threshold” in [1] (setting [22]) and 3.7 in [2] (setting [22]).

B7: HPV73-E6, Q82005 (peptide)
chain: SGSRPSATVV
As for B7, the negative-log Kd (pKd) entry is “below the threshold” in assay [3]; “below the threshold” in [1] (setting [23]); “below the threshold” in assay [4]; 4.36 in assay [5]; “below the threshold” in assay [6]; “below the threshold” in assay [7]. Also, the pKd entry in assay [8], in [9], in assay [10], in assay [11], in assay [12] and in [13] was “below the threshold” in each case. Besides, the pKd result was “below the threshold” in assay [14]; “below the threshold” in assay [15]; “below the threshold” in assay [16]; “below the threshold” in [17]; 4.65 in assay [18]; “below the threshold” in assay [19]. The negative logarithm of the Kd (pKd) result in assay [20] is “below the threshold”; in assay [2] (setting [23]), 3.6; in [21], “below the threshold”.

B8: TMIGD1, Q6UXZ0 (peptide)
chain: DKDPHSETAL
Regarding B8, the pKd is 4.17 in assay [1] (setting [23]) and 4.1 in assay [2] (setting [23]).

B9: PLCB4, Q15147 (peptide)
chain: EMDRRPATVV
For the molecule B9, the figures for the pKd in assay [1] (setting [23]) and in [2] (setting [23]) were 4.53 and “below the threshold”, respectively.

B10: KCTD3, Q9Y597 (peptide)
chain: SDSSGQEYSL
For B10, the pKd result in assay [1] (setting [22]) and in assay [2] (setting [22]) was “below the threshold” each time.

B11: PDLIM4, P50479;P50479-2 (peptide)
chain: PSASCAVTAA
On to B11, for which the pKd result in assay [1] (setting [22]) and in assay [2] (setting [22]) was “below the threshold” in each case.

B12: PPP1R13L, Q8WUF5 (peptide)
chain: PRVKPQRSKV
Consider B12, for which the pKd in assay [1] (setting [23]) was 3.54; in [2] (setting [23]) it was “below the threshold”.

B13: MLLT4_int, P55196 (peptide)
chain: YGIVQETTFDLGGDIH
Regarding B13, the pKd entry in assay [1] (setting [24]) and in assay [2] (setting [24]) was “below the threshold” in each case.

B14: ARHGEF7, Q14155;Q14155-1 (peptide)
chain: NDPAWDETNL
On to B14, for which the pKd is 4.03 in assay [1] (setting [23]) and 4.26 in assay [2] (setting [23]).

B15: ACVR2A, P27037 (peptide)
chain: VDFPPKESSL
As for B15, the negative-log Kd (pKd) in assay [1] (setting [23]) stood at 4.2; in assay [2] (setting [23]) it was 3.65.

B16: TJP3, O95049 (peptide)
chain: GYDWGPATDL
On to B16, for which the pKd in assay [1] (setting [22]) came to 4.66; in assay [2] (setting [22]), 4.33.

B17: DFNB31_int, Q9P202 (peptide)
chain: VSVDDVRSTSQGLSSY
B17: the pKd entry in assay [1] (setting [24]) and in assay [2] (setting [24]) was “below the threshold” throughout.

B18: TRIM50, Q86XT4 (peptide)
chain: PLSPEQPTKL
As for B18, the pKd entry in assay [1] (setting [25]) and in assay [2] (setting [25]) was “below the threshold” in each case.

B19: SLC16A3, O15427 (peptide)
chain: EVVHTPETSV
Turning to B19, the values for the pKd in assay [1] (setting [23]) and in assay [2] (setting [23]) were 3.89 and 4.71, respectively.

B20: PSCDBP, O60759 (peptide)
chain: RAVEEEESRF
As to B20, the pKd result in assay [1] (setting [22]) and in assay [2] (setting [22]) was “below the threshold” in each case.

B21: PDZRN4, Q6ZMN7 (peptide)
chain: HNAFLSVTTV
As for B21, the pKd result in [1] (setting [22]) and in assay [2] (setting [22]) was “below the threshold” each time.

B22: SLC2A1, P11166 (peptide)
chain: FHPLGADSQV
With B22, the pKd entry is “below the threshold” in [1] (setting [23]) and 3.88 in [2] (setting [23]).

B23: GRIN1, Q05586;Q05586-2 (peptide)
chain: LSDPSVSTVV
Turning to B23, the pKd result in [2] (setting [22]) was “below the threshold”.
